Results as given in PMC8982406.
Numbering of substitutions follows the chain as printed. In names and notes the source's numbering stands. Values belong to the molecule of their own block, whether it stands above or below them.

Legend:
[1] = molecular target: full-length RLIM protein (wild type; mapping and mutation co-IPs) (UniProt Q9NVW2); assay: co-IP (IP: FLAG, IB: myc), blot quantification; conditions: ZC4H2-myc + RLIM-FLAG, MG132 +; parent: 1.00
[2] = molecular target: T1, full-length RLIM protein (wild type; mapping and mutation co-IPs), Q9NVW2; assay: co-IP (IP: FLAG, IB: myc), blot quantification; conditions: chain shown with the change; ZC4H2-myc + RLIM-FLAG, MG132 +; parent: 1.00
T1 chain: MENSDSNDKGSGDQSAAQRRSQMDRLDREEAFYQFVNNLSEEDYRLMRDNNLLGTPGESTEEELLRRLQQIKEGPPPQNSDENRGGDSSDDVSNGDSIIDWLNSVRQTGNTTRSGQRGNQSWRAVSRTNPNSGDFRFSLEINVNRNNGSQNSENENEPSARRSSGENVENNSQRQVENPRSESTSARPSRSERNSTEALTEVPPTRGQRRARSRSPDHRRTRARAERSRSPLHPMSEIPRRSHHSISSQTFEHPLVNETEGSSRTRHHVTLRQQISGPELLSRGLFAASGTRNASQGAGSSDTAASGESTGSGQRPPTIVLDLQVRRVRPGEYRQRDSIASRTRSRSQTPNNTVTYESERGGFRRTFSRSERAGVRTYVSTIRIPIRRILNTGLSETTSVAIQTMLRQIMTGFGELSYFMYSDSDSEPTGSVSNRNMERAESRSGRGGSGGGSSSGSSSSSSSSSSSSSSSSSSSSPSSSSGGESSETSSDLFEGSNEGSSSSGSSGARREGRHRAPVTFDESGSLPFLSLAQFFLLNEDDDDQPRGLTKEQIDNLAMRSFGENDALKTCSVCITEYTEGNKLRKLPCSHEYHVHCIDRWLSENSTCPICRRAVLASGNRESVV

ratio to parent [1]: 0.13
Molecule: ZC4H2 (wild type; mapping and mutation co-IPs) (from UniProt Q9NQZ6) A201S

ratio to parent [2]: 0.18
B1: ZC4H2 (wild type; mapping and mutation co-IPs), Q9NQZ6 A200V (protein)
chain: MADEQEIMCKLESIKEIRNKTLQMEKIKARLKAEFEALESEERHLKEYKQEMDLLLQEKMAHVEELRLIHADINVMENTIKQSENDLNKLLESTRRLHDEYKPLKEHVDALRMTLGLQRLPDLCEEEEKLSLDYFEKQKAEWQTEPQEPPIPESLAAAAAAAQQLQVARKQDTRQTATFRQQPPPMKACLSCHQQIHRNVPICPLCKAKSRSRNPKKPKRKQDE

ratio to parent [2]: 0.15
B2: ZC4H2 (wild type; mapping and mutation co-IPs), Q9NQZ6 R198Q (protein)
chain: B1 chain with R198Q, V200A

ratio to parent [2]: 1.2
B3: ZC4H2 (wild type; mapping and mutation co-IPs), Q9NQZ6 V63L (protein)
chain: B1 chain with V63L, V200A

ratio to parent [2]: 0.19
B4: ZC4H2 (wild type; mapping and mutation co-IPs), Q9NQZ6 R213W (protein)
chain: B1 chain with V200A, R213W
